We go through 68 sequences from the domain aggregation screens of Martell et al. (2025).

The nature of the data set: soluble fraction after stress (log2 fold change); higher = more stays soluble; pooled small domains, quantitative proteomics. The note with it: stress: pH 4. Summed up: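 How much of each domain stays soluble after acid stress, expressed as a fold change, is used to gauge aggregation propensity. Pooled custom libraries of small domains underwent pH 4 stress before high-throughput quantitative proteomics. A higher log2 value means more of the domain stayed soluble.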

Turning to “HMARGRETILLVEDEPAVRGLVHATLRLHGYTVLEARHGIEALLTSTKFVGPIHLLLTDVVMPQMS”, the “soluble fraction (log2)” value came out at 0.265.

“HMARHIHFEVHVQQAGRWSIHAQFGAGQREKAIEEAKKIEKTPGFDSVKVVKETYDSDLGNHQDTTIYRGP”: the “soluble fraction (log2)” value is 0.0508. Consider “HMARKTIFHSLLGELEQRIGRLPAGTILPAEQALADEYGVSKPTLRRALAELAEHGLITKENGIGSVVI”, for which the “soluble fraction (log2)” value is ≥ 0.43.

Take “HMARLAGVDLPREKRIEIGLTYIYGIGLARSQEILKKAGINPDIRVKDLTDEQEQAIRNAMDGYIVEGDL”: the “soluble fraction (log2)” value was -0.0746. For the sequence “HMARLQEVVVRVPVEDGQTLAAIYREAEVIERADEGTGVLLTVRIPAPLLGRLRRLEGVHVQP”, the “soluble fraction (log2)” value was -0.348. With “HMARRLELEDIPVDEVLFTASRNLVDAIEVMDPSRQAPMIQPWLKQALEWAVGALGFSKEDAVATLTSD”, the “soluble fraction (log2)” value is -0.264. For “HMASAAHYEGVKTEGESDNDVITRVLTATGVTAEKDDIFVVKSLIADGKYSYTAYVYDGSVWAAMD”, the “soluble fraction (log2)” value is -0.541. As for “HMASALDVALNDFAEMRKKMRKPLTDRALALTLSELEKLAPGNDEKKIAILNQSIQRGWQGVFPLK”, the “soluble fraction (log2)” value was found to be 0.0901. As to “HMASDEVPGAGFKWREDVLLRVMEANGIDKSNRDDFVRHAVNFDDDDNNYLKKAEIEAAAAAWVESQSPA”, the “soluble fraction (log2)” value is -0.239.

On to “HMASDLPTVTIMGKTFYTYVAKKGESFFGIANRFGWDPELLVKTNRELETPLDKGALIYYPVPKKPK”, for which the “soluble fraction (log2)” value is -0.521. To “HMASIATLTVKALGGASDVVIRDKDGRIIWADRLPAGQSHRVFGHAPFNVAASHASRVQLSLLGKDVGRV” belongs -0.147; to “HMASISDRIRLLRAESHMTQEEFGRIFGISKPTVSFYEHGKSVPNDQIKTAIARYFGVSVDYLLGVTD”, -0.467; to “HMASKTGTITATSLNVRSGAATTYSILGTLSNGKTVTIYEESNGWYKINYNGGYGWVSKTYVSTG”, -0.105. As for “HMASLASVAYETLRQALDNFQYVPGDRFSESEVGQQLGMSRTPVREALVRLQREGYISVLPKMGWVVNQ”, the “soluble fraction (log2)” value was -0.953. On to “HMASMHDGVAARLRAMVFERELAPGEFIDERRLAQQWQISRTPLREALKVLAAEGLVELVPRRGARVV”, for which the “soluble fraction (log2)” value was -0.275. As for “HMASPKEALWRSLAEEPDTWWDNRERKSQPGANPRSPDFKHKESGEALWIESRDTPTWVLETL”, the “soluble fraction (log2)” value was -1.5. Turning to “HMASQEESVATYIQDYYRNPKTGESMVSDDMVEEFYKTHPEWEDQADGSKEGMEAVLDNFNEFFEINYG”, the “soluble fraction (log2)” value is -0.136. For the sequence “HMASSRPLAEGDFVRLRAGGATGRIESIKGQKATVQMGGLKVHAPLRDLLPVAEPIKQVSTASNT”, the “soluble fraction (log2)” value was 0.203.

On to “HMASVAKHIRRLRTERHMTQGDLAEKLFVTRQTVSAWETGKAQPDLETLERIAVVLGVEVTELIYGAP”, for which the “soluble fraction (log2)” value was -0.537. “HMASVVEQVQVSNDISLFRQQNSPYWQARFKVAGKWYTRTTKRTEQTQAAFRAAELRSEVQTKISQGIPLR”: the “soluble fraction (log2)” value was -0.00738. Under “HMATESYYVLKADVPAKTLVTQEMVEEIKVSKGGAPVNSIKIDNIKEKGVYTSIPLLKGDVLSASNTG” stands -0.358.

“HMATKVSSGATVRDVADLLGLSSAELIKKLMMMGEMATLTQTLTDESIKSIADEYDRKIEIVSAAE”: the “soluble fraction (log2)” value was -1.22. Turning to “HMATNVLEISTRNKNILIQDSLNLVESFYSKSDNQYWYKLVFKTKDDLNKFLQEVSEDENTITYKTSSI”, the “soluble fraction (log2)” value is -0.194. As for “HMATPEINNLGRLRNAINQSNVNWHQIIKRLQNEYPNNWRQILIAIDRHDLLFRYDVENYIKYG”, the “soluble fraction (log2)” value is -0.855. Under “HMATPIAGTKYTLNNTPVYGTEKGPSIGKRSGIYYTWDATVRNGRIRMTNSPARVGVPWQVSFWVEVNKL” stands -0.195. Turning to “HMATPRLAIVPQSAAGRRLDAVLAELFPEYSRSRLSAWIKTGDVMVDGAAPRGRDPVRGGEEITLTAVQ”, the “soluble fraction (log2)” value was determined as 0.113.

Consider “HMATPTEHQLQAQARAVVEKAERLLDRASADDREDIINLIEKITDALAAEDFTAVKAPLAELSDILFYLE”, for which the “soluble fraction (log2)” value was -0.27. Under “HMATPTMEDYIEVIYSLVKTKGYARSADIAEKLEVYPSTVTKMLKKLDAEGYIVYEKYRGIALTDIGKKMG” stands -0.189. On to “HMATSNGEFVIPDGGLQFEELERSLLMQALKKSGGSQTGAARLLGLSRDTLRYRLEKFGIDAAAVRE”, for which the “soluble fraction (log2)” value is -0.149. On to “HMATVTVPNLKGMTPSGAESALAELNLKGAVGDSVESNDVENGKVASQDQAAGSDAKEGDTITYHLSS”, for which the “soluble fraction (log2)” value is -0.103.

“HMATYETEVISGVNLRSAPNTSASVYRLLSKGEDIHVIQKVNDYWLKVQTKDGKIGYISASSKYTNYIA”: the “soluble fraction (log2)” value was -0.132. Take “HMAVEETFTITWLDRDGTVLEVDENVLKGTMPSFDGHIPPHDGLEFKGWDPEVVPVEGDATYTATYKA”: the “soluble fraction (log2)” value was -0.454. For the sequence “HMAVENTGLSKRELEILQMMARGMSNQEIGDALFISLSTVKTHVASIFSKLQAVRRTQAVGIAKSLKII”, the “soluble fraction (log2)” value was -0.367. For the sequence “HMAVFSKKQIFDTAFALFESKGLEAITARNLGKALSSSPAPIYAHYSSITELKNELISVAKDR”, the “soluble fraction (log2)” value was -0.692. With “HMAVGDMISKLRTAANMSQEQFAELFGVTRQSVQKWENSFSVPELEKLIKISKYFDVSLDALVLRSDARVT”, the “soluble fraction (log2)” value is -1.32.

In the case of “HMAVLFFVKRGERILGPTRLADLFQHAASGRLRANDLVGESPKGPWLPARQLDELEDAWASSRDATEAAAA”, the “soluble fraction (log2)” value is -0.0753. With “HMAVNQEFKNTINRIKYEYSLNQSQIADRLGVKKTYLSDMINGRVPYNETMNKKVNDVFPLPP”, the “soluble fraction (log2)” value was ≥ 0.43. Regarding “HMAVPTHVEFPVVGLQRSGITSLEQAIATVPGVSKAVVNVSDNRIFVDYDPTRSKVSDLLEVVRGAGFTP”, the “soluble fraction (log2)” value is -0.222.

On to “HMAVQAESDIIKRAALLRNLGNTSMQLKNIDQAIDFYKQGIKLHPEDAELKYNLSQALRQKSQSNN”, for which the “soluble fraction (log2)” value is 0.186. With “HMAVQEDAGLAREDLPPEVQGLLQEREAARAAKDWGKSDALRRQLQDLGYAIKDTAQGMEIKRT”, the “soluble fraction (log2)” value is 0.101. In the case of “HMAVRNTKQKQLVLSLLKNSGRPMTAGEIYRLAVQQYPNIAKSTVYRNLENLVSRGEVSQGMHQNGESFYS”, the “soluble fraction (log2)” value was ≥ 0.43. With “HMAVSPEEQKKRIIELFRNRNEVSFKEIFDLPTKGHFVITLLAVLDLARQQIVIMEQLENEGIIKFTKGA”, the “soluble fraction (log2)” value was -0.232. Under “HMAVSSHAVKQRIRSLIQAEDPAAPLSDEALRLALSALGVDVSRRVIAKYRAELNIPSSSQRKK” stands 0.213; under “HMAVSVPDVMGLTYEEAYNKITAEGLLVNRLESYTGLVEKGRVISQLPVGGEPAAKGSTVNVNVSL”, -0.139. “HMAVTFPYTAYATDAVRLRERPSSSADVLAVIRKGDAVLVTGTDGNYAIVDYEGKRGYVVSSFIAT”: the “soluble fraction (log2)” value is -0.159. To “HMAVWRIKVNYIPGYGVNIWSSYKNGHFTGKRAMHGETYEVLETKKDQDGNTWYKLDDHQWIEGRYAINAK” belongs -0.88. Under “HMAYMETIERVEALAPGTKFNLKALFGTDWTQSRGTKLTLGKTFYEMVESGYVKTAKVLGKDSSNIMQYER” stands -0.0837; under “HMAYSEEERNLIRSRLKDVAAALFKEKGIRDTNIDEIYTPVGISKTFFYSFFPSKAVLAIAIMK”, -0.267. “HMAYVDWYENKQPTHEEAFKKLLGRIHPGAIVLLHSTSKTNGEILDELLTKWEEMGYRFGTLDELTGN”: the “soluble fraction (log2)” value was -1.14. “HMDAATDAIKAEVRALLEMANAQGIDTESIMLEAHEQTRNATEQDYYEAAKSALEAAIAGSNRDR”: the “soluble fraction (log2)” value was -0.319. Under “HMDADGEPIKLDQIGISHLSFTVADVKSLGEELVAKGVKLAAPMEAFTSPEGRISSIFVYDPDGILLQFDD” stands -0.123; under “HMDADRLSPREREMLQFIARGQSNKEIARALELAESTVKIHVQNMLRKLNLSSRVQAAVFAVENGLG”, 0.302. For the sequence “HMDAGLAEIIRSFEDNLGGFPPAAREDLLGWREIFTDDLILLAIKKAALAGVRKWSYVNGILKVWKNEGVR”, the “soluble fraction (log2)” value is -1.09. To “HMDAHYMEMKGKTGTAFTMLRPAGKIDIEGQIFDAVAEAGFIEKGEAIRVVKYENAQLIVRK” belongs -0.32. Consider “HMDAIAYLGSRLKEIRLKSGLSLREIARQLDVSPSFISQIENGKSQPSVATLYAFAKLLNVPVDVLFQPS”, for which the “soluble fraction (log2)” value was -0.455. Turning to “HMDAKNNPQVMAQIRAILTAKGLSEDEVKTRLKTKNIDVDKMTDQEIIAQRPAIEAIINEMEQEKKQKMG”, the “soluble fraction (log2)” value was found to be 0.142. Turning to “HMDALPLIQLEKEIKDFISQGQKINAIKHYRNVMDRDFGTTISLKLAKYTVDALAQNIKVDLTKGYDQ”, the “soluble fraction (log2)” value was -0.852. On to “HMDALTLSIDAQGALYWNGQPVSRELAAQRFVEAAAQRPQPELHLRADQNVAYRHVAMTLADASRAGLTR”, for which the “soluble fraction (log2)” value is -0.632. As for “HMDANAYTYKVSEDTDTRTGEKIFLVKVAEKLSRKEYIVVNNYMKSLGSYYSKFKHAFLFKENPTEKL”, the “soluble fraction (log2)” value is -0.246. As to “HMDANLGEIFKVYEQEIGALTPFVREEMLDAIDHYPRDWILDAIRESAKSNARNWKYTLAILKRWKAEG”, the “soluble fraction (log2)” value was -0.507.

As to “HMDAPIIRLLNSLVQRAVTTTASDIHIEPFEGETKVRMRIDGVIIDYVTLQRALHQPLIARIKIMSNLD”, the “soluble fraction (log2)” value is -0.237. On to “HMDAPKTGSLVVSKAVNYGSWSGFTFRLHGTSDKGNSVDVTATTGSDGKAYFKDIEIGTYTLEEVN”, for which the “soluble fraction (log2)” value is -1.19. To “HMDAQEAAWARKMMETLPEKQKLSVALRIEEGLSFKEIGEIIGSSEGAARVNYFHGIRRLRELL” belongs -0.768; to “HMDAQNLQDQLFGFLKANPTQAYPAQTLADGLRLDDANAFTKVVQALAALERGGKVKVNEEGAFQYDAEK”, -0.0669; to “HMDARSTHIAAIHVLKSKLQLQDSDYRALLLTLTGQTSSKDLSEHQRRAVRNHMQQLAERMGVVQ”, 0.0263.

Consider “HMDATFKVRVSVPDLNIRSGPGTNYAATGRFTGVGVFTITAVQSGQGSSSGWGKLKSGAGWIALDYAKR”, for which the “soluble fraction (log2)” value came out at 0.341.

On to “HMDATIGGFKITDSAIYSGVKNNVNAGVRGTYIDKDGQIAFGDSNSYLKYYKDTDGKWKLEVSASSVKF”, for which the “soluble fraction (log2)” value was -0.476. Take “HMDAVDKDGNHMTFKKWSEQLQEAFHALELYDTTRAKQILSELVKFQVDSDITKSLKAIITNIDDMMA”: the “soluble fraction (log2)” value was -1.5.
